Measured values from patent US20260234246A1 (CAEDO ONCOLOGY, published 2026).
Blank lines part the entries; values can stand above or below the binder they belong to.

Columns and labels:
[1] = molecular target: T1, human CD47 on the surface of cells (human cancer cell lines and human red blood cells) (human, UniProt Q08722 19-323); test: flow cytometry, FITC-mCO-1 on H4 cells
T1 construct: Native CD47 of human cell lines (Jurkat, Reh, CCRF-CEM and others) and of RBCs from healthy donors; also called cell-surface CD47
Experimental: (§1) PBS-washed cancer cell lines or RBCs were pelleted and washed with washing buffer (3% (w/v) BSA, 1% (w/v) sodium azide in PBS) and incubated with Human BD Fc Block for 10 minutes before being plated into a round-bottom 96 well plate (2.5×10⁵ cells per well). Antibodies were conjugated with FITC using the FITC conjugation kit from Abcam. […] All samples were prepared in duplicates. Cells were washed three times and resuspended in cold washing buffer. Cells were kept on ice until analyses by flow cytometry. Excitation wavelength FITC: 488 nm, detection: 530/30 nm.

[2] = molecular target: T1, human CD47 on the surface of cells …; test: flow cytometry, FITC-mCO-1 on Reh cells
[3] = molecular target: T1, human CD47 on the surface of cells …; test: flow cytometry, FITC-mCO-1 on T24 cells
Experimental: as §1

[4] = molecular target: T1, human CD47 on the surface of cells …; test: flow cytometry, FITC-mCO-1 on Raji cells
[5] = molecular target: T1, human CD47 on the surface of cells …; test: flow cytometry, FITC-mCO-1 on A-172 cells
[6] = molecular target: T1, human CD47 on the surface of cells …; test: flow cytometry, FITC-mCO-1 on HL-60 cells
[7] = molecular target: T1, human CD47 on the surface of cells …; test: flow cytometry, FITC-mCO-1 on K-562 cells
Experimental: as §1

[8] = molecular target: T1, human CD47 on the surface of cells …; test: flow cytometry, FITC-mCO-1 on SW780 cells
[9] = molecular target: T1, human CD47 on the surface of cells …; test: flow cytometry, FITC-mCO-1 on MOLT-4 cells
[10] = molecular target: T1, human CD47 on the surface of cells …; test: flow cytometry, FITC-mCO-1 on SUP-T1 cells
Experimental: as §1

[11] = molecular target: T1, human CD47 on the surface of cells …; test: flow cytometry, FITC-mCO-1 on SW1088 cells
Experimental: as §1

[12] = molecular target: T1, human CD47 on the surface of cells …; test: flow cytometry, FITC-mCO-1 on TCCSUP cells
Experimental: as §1

[13] = molecular target: T1, human CD47 on the surface of cells …; test: flow cytometry, FITC-mCO-1 on HT-1197 cells
Experimental: as §1

[14] = molecular target: T1, human CD47 on the surface of cells …; test: flow cytometry, FITC-mCO-1 on HT-1376 cells
[15] = molecular target: T1, human CD47 on the surface of cells …; test: flow cytometry, FITC-mCO-1 on U-87-MG cells
[16] = molecular target: T1, human CD47 on the surface of cells …; test: flow cytometry, FITC-mCO-1 on UM-UC-3 cells
[17] = molecular target: T1, human CD47 on the surface of cells …; test: flow cytometry, FITC-mCO-1 on CCRF-CEM cells
[18] = molecular target: T1, human CD47 on the surface of cells …; test: flow cytometry, FITC-mCO-1 on U-118-MG cells
Experimental: as §1

[19] = molecular target: T1, human CD47 on the surface of cells …; test: flow cytometry, FITC-mCO-1 on human RBCs (FIG. 1E)
Experimental: as §1

[20] = molecular target: T1, human CD47 on the surface of cells …; test: flow cytometry on human RBCs (same experiment as paragraph 345, printed more exactly)
[21] = molecular target: T1, human CD47 on the surface of cells …; test: flow cytometry, FITC-conjugated antibody on CCRF-CEM cells
Experimental: as §1
4-parameter curve fitting was performed using GraphPad Prism

[22] = molecular target: T2, recombinant CD47 (recCD47), SinoBiological 12283-H27H-B, biotinylated (human, UniProt Q08722 19-139, biotinylated (AVI-tag)); test: SPR Biacore S200, multi-cycle (top 50 nM), recCD47 on SA chip 1330 RU, 1:1 model
T2 construct: Bought protein, 17 kDa; At 17 kDa it can only be a part of it; also called recombinant biotinylated CD47; not shown: C-terminal His- and AVI-tag

[23] = molecular target: T2, recombinant CD47 (recCD47), …; test: SPR Biacore S200, single-cycle (top 80 nM), recCD47 on SA chip 1330 RU, 1:1 model
[24] = molecular target: T2, recombinant CD47 (recCD47), …; test: SPR Biacore S200, single-cycle, recCD47 on SA chip 700 RU, antibody as analyte, 25 C, 1:1 model
[25] = molecular target: T2, recombinant CD47 (recCD47), …; test: SPR Biacore S200, multi-cycle (top 50 nM), recCD47 on SA chip 1330 RU, antibody as analyte, 1:1 model
[26] = molecular target: T2, recombinant CD47 (recCD47), …; test: SPR Biacore S200, single-cycle (top 80 nM), recCD47 on SA chip 1330 RU, antibody as analyte, 1:1 model
[27] = molecular target: T2, recombinant CD47 (recCD47), …; test: SPR Biacore S200, multi-cycle (top 50 nM), recCD47 on SA chip 1330 RU, 1:1 model; * off-rate difficult to determine
[28] = molecular target: T2, recombinant CD47 (recCD47), …; test: SPR Biacore S200, single-cycle (top 80 nM), recCD47 on SA chip 1330 RU, 1:1 model; * off-rate difficult to determine

T2 sequence (Q08722 19-139 limits assumed): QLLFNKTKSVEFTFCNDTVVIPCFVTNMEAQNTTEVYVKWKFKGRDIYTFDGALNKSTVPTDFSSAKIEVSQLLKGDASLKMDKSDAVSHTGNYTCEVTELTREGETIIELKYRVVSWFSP
T1 sequence (Q08722 19-323 limits assumed): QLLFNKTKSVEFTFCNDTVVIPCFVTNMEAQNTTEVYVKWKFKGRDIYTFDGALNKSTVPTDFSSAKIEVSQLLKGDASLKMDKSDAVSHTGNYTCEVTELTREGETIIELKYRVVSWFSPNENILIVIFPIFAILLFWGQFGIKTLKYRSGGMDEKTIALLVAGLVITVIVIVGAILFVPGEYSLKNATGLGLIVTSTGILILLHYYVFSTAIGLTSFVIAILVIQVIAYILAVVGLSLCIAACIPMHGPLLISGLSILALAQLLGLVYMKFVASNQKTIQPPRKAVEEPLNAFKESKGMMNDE

EC50 [1]: 2460 ng/mL | EC50 [2]: 2800 ng/mL | EC50 [3]: 900 ng/mL | EC50 [4]: 26.7 ng/mL | EC50 [5]: 3500 ng/mL | EC50 [6]: 592 ng/mL | EC50 [7]: 354 ng/mL | EC50 [8]: 334 ng/mL | EC50 [9]: 10.6 ng/mL | EC50 [10]: 4.25 ng/mL | EC50 [11]: 1170 ng/mL | EC50 [12]: 2400 ng/mL | EC50 [13]: 786 ng/mL | EC50 [14]: 286 ng/mL | EC50 [15]: 2990 ng/mL | EC50 [16]: 55.3 ng/mL | EC50 [17]: 1.08 ng/mL | EC50 [18]: 404 ng/mL | EC50 [19]: 40 ng/mL | EC50 [20]: 44 ng/mL
B1: murine CO-1 (mCO-1) antibody (antibody, V domains shown)
VH: QIQLVQSGPELKKPGETVKISCKASGYTFTNFGMHWVKQAPGKGLKWMGWINTYTGEPTYTDDFKGRFAFSLETSASTAYLQINSLKNEDTATFFCTRGDYRYGDSWGQGTTLTVSS
VL: DVVMTQTPLSLPVSLGDQASISCRSSQSLVHSNGKTYLHWYLQKPGQSPKLLIYRVSNRFSGVPDRFSGSGSGTDFTLKISRIEAEDLGVYFCSQSTHVPFTFGSGTKLEIK
notes: Full length mouse IgG1 kappa antibody from a hybridoma

EC50 [21]: 0.0283 ng/mL | Kd [22]: < 1 pM | Kd [23]: < 1 pM | koff [24]: 4.7e-06 s⁻¹ | kon [24]: 1.4e+06 M⁻¹ s⁻¹ | kon [25]: 900000 M⁻¹ s⁻¹ | kon [26]: 500000 M⁻¹ s⁻¹ | Kd [27]: 0.04 pM | Kd [28]: < 1 pM
B2: CO-1.1 antibody (chimeric CO-1 IgG1) (antibody)
heavy: not shown
light: DVVMTQTPLSLPVSLGDQASISCRSSQSLVHSNGKTYLHWYLQKPGQSPKLLIYRVSNRFSGVPDRFSGSGSGTDFTLKISRIEAEDLGVYFCSQSTHVPFTFGSGTKLEIKRTVAAPSVFIFPPSDEQLKSGTASVVCLLNNFYPREAKVQWKVDNALQSGNSQESVTEQDSKDSTYSLSSTLTLSKADYEKHKVYACEVTHQGLSSPVTKSFNRGEC
notes: Chimeric: mouse variable domains of mCO-1 with human IgG1 constant regions; also called SC-CO-1; MC-CO-1
